Drawing on publication PMC11410670, “Growth of complete ammonia oxidizers on guanidine” (Nature, 2024), this text covers stoichiometry N and Km for two molecules.

Series [1] has as its target Nitrospira inopinata guanidinase (Nitrospira inopinata). The series is described as follows: SEC-MALS; Superdex 200 Increase 10/300 GL, 20 °C, 20 mM HEPES, 150 mM NaCl, pH 7.4; 80 µl injected at 1 mg/ml; hexamer in solution.
Substrate in series [2]: N=C(N)N
The series is described as follows: urea production, thiosemicarbazide-diacetylmonoxime colorimetry, Michaelis-Menten fit. The class given is biochemical, Candidatus Nitrospira inopinata. To be noted: pH 7.5, 37 °C, 20 mM Tris-HCl, 50 mM NaCl, enzyme expressed with 1 mM NiSO4 and assayed with 1 mM Ni2+.

In series [1], “Nitrospira inopinata guanidinase (enzyme)” showed a stoichiometry N of 6.

B1: N. inopinata guanidinase (Candidatus Nitrospira inopinata) (protein)
chain: MAKKRTYQGKVPLHDNYGPEAKYAVEAEALLPTTKFEEEIARGLELGLPGADSIKDRRIPTFSRGELPHFAGINTFIKAPYVEDVRKCGQYDVAILGAPFDGGTTYRAGTRFGPQGIRKISALYGTYSFELGVDLRESVSICDVGDIFTIPGNIEKTFDQVSKGVGHVFASGAFPVVLGGDHSLGFATVRGVAQHLNGKKLGILHFDRHVDTQDTDLDERMHTTPWFHATNIPNVPAKNLVQIGIGGWQAPRPGVKAGRERQTTIMTVTDCVEMGIENAAKQALEVAFDGVDAVWLSFDVDCLDAAFVPGTGWPEPGGFLPREVLKFLQIIADTKPLAGMEIVECAPPYDAAEITSLMATRVICDVLACQVRSGHLGNRKKR
notes: full-length, N-terminal His6-MBP tag (pCoofy4) cleaved with HRV-3C; E. coli; homohexamer 240 kDa; Ni/Mn; N-terminus from primer MAKKRTY; residues T105, H182, D207, H209, D211, H222, D299, D301, W313, E344
For B1, in series [2], the Km is reported as 13.6 ± 0.76 mM.
